# In the nanobody polyreactivity screen of Harvey et al. (2022):
# Test: yeast display, Sf9 membrane polyspecificity reagent, FACS + sequencing; frameworks hold sequencing errors
# Procedure, shortened: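 A synthetic nanobody library was expressed on Saccharomyces cerevisiae BJ5465 by galactose induction for 36–48 hours. The library was stained for 1 hour at 4 °C with 10% biotinylated, detergent-solubilized Sf9 membrane reagent and enriched with streptavidin microbeads before FACS. Low and high (top ~1%) gates were set on anti-HA fluorescence for expression and streptavidin fluorescence for reagent binding, and each polyreactivity label reflects the gate of origin.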
row,Sequence,polyreactivity (PSR sort gate)
1,QVQLVESGGGLVQAGGSLRLSCAASGRTFQVNAMGWYRQAPGKERELVAGITQRAGSTYYADSVKGRFTISRDNAKNTVYLQMNSLKPEDTAVYYCAAQDVHLWYENYYWGQGTQVTVSS,low polyreactivity
2,QVQLVESGGGLVQAGGSLRLSCAASGRTFQWYAMGWYRQAPGKERELVAAIRYSAGSTYYADSVKGRFTISRDHAKNTVYLQMNSLKREDTAVYYCAAEPYPYGPYYFLWLRYDYWGQGTQVTVSS,low polyreactivity
3,QVQLVESGGGLVQAGGSLRLSCAASGRTFQWYAMGWYRQAPGKERELVAAITSGGNTYYADSVKGRFTISRDNAKNTVYLQMNSLKPEDTAVYYCFLFYSRSMGYWGQGTQVTVSS,high polyreactivity
4,QVQLVESGGGLVQAGGSLRLSCAASGRTFQWYAMGWYRQAPGKERELVAGISFSGGSTYYADSVKGRFTISRDNAKNTVYLQMNSLKPEDTAVYYCAARRFSPGSSGHGYWGQGTQLTVSS,high polyreactivity
5,QVQLVESGGGLVQAGGSLRLSCAASGRTFQYNAMGWYRLAPGKERELVAAISSGGSTYYADSVKGRFSISRDNAKNTVYLQMNSLKPEDTAVYYCATYLAEYGYWGQGTQVTVSS,high polyreactivity
6,QVQLVESGGGLVQAGGSLRLSCAASGRTFQYNAMGWYRQAPGKERELVAAISSYGGSTYYADSVKGRFTISRDNAKNTVYLQMNSLKPEDTAVYYCNAYSQSWNFYGDGDDWGQGTQVTVSS,low polyreactivity
7,QVQLVESGGGLVQAGGSLRLSCAASGRTFQYNAMGWYRQAPGKERELVAAISWSDGITYYADSVKGSFTISRDNAKNTVYLQMNSLKPEDTAVYYCAAEGYGLSYYFPYDFWGQGTQVTVSS,high polyreactivity
8,QVQLVESGGGLVQAGGSLRLSCAASGRTFQYNAMGWYRQAPGKQWELVAAISSSGGSTYYADSVKGRFTISRDNAKITVYLKMNSLKPEDTAVYYCNAYSQSWNFYGDGDYWGQGTQVTVSS,low polyreactivity
9,QVQLVESGGGLVQAGGSLRLSCAASGRTFQYYAMGWYRQAPGKERELGAAISGIGTSTSYADSVKGRFTISRDNAKNTVYLQMNSLKPEDTAVYYCAARLLVPGSPWYTNYYWGQGTQVTVSS,low polyreactivity
10,QVQLVESGGGLVQAGGSLRLSCAASGRTFQYYAMGWYRQAPGKERELVAAISWSGGSTYYADSVKGRFTISRDNAKNTVYLQMNSLKPEVTAVYYCAASFRGQIVGYWGQGTQVTVSS,high polyreactivity
11,QVQLVESGGGLVQAGGSLRLSCAASGRTFQYYAMGWYRQAPGKERELVAAITWTGGSTYYADSVKGRFTISRDNAKNTVYLQKNSLKPEDTAVYYCIARYKTLGSQSRSGPGGKYGYWGQGTQVTVSS,high polyreactivity
12,QVQLVESGGGLVQAGGSLRLSCAASGRTFQYYTMGWYRQAPGKERELVAAIRRGGSTYYADSVKGRFTISRDNAKNTVYLEMNSLKPEDTAVYYCAALYAFSLTARGMEYWGQGTQVTVSS,high polyreactivity
13,QVQLVESGGGLVQAGGSLRLSCAASGRTFRANAMGWYRTAPGKEMELVAAISQRGGNTYYADSVKGRFTISRDNAKYTVYLQMNSLKPEDTAVYYCAADITTYRRGRYEYEFWGQGTQVTVSS,high polyreactivity
14,QVQLVESGGGLVQAGGSLRLSCAASGRTFRDNAMGWYRQAPGKERELVAVITVDSSSTYYADSVKGRFTISRDNAKNTVYLQMNSLKPEDTAVYYCAAELYYFWFDYWGQGTQVTVSS,low polyreactivity
15,QVQLVESGGGLVQAGGSLRLSCAASGRTFRDYVMGWYRPAPGKERELVAAISTRGASTYYADSVKGRFTISRDNAKNTVYLQMNSLKPEDTAVYYCAARSTRRGNEYDYWGQGTQVTVSS,high polyreactivity
16,QVQLVESGGGLVQAGGSLRLSCAASGRTFRFNAMGWYRQAPGKERELVAAISSSGDSTYYADSVKGRFTISRDNAKNTVYLQMNSLKPEDTAVYYCAVRSRTPRAYYYWGQGTQVTVSS,low polyreactivity
17,QVQLVESGGGLVQAGGSLRLSCAASGRTFRFYAMGCYRQAPGKERELVAAINYGGGNTYYADSVKGRFTISRDNAKNTVYLQMNILKPEDTAVYYCAAQYYYRARWFPYDYWGQGTQVTVSS,high polyreactivity
18,QVQLVESGGGLVQAGGSLRLSCAASGRTFRFYAMGWYRQAPGKEREFVAAISRCVGSTYYADSVKGRFTISRDNAKNNVYLQMNSLKPEDTAVYYCNADYRSRYVEYDYWGQGTQVTVSS,high polyreactivity
19,QVQLVESGGGLVQAGGSLRLSCAASGRTFRFYAMGWYRQAPGKEREFVASISRGGITYYADSVKGRFTISRDNAKNTVYLQMNSLKPEDTAVYYCAAGYPVLLERYSSFGGYYYWGHGTQVTVSS,high polyreactivity
20,QVQLVESGGGLVQAGGSLRLSCAASGRTFRFYAMGWYRQAPGKERELVAAIRWSGGSTYYADSVKGRFTISRDNAKNTVYLQMNSLKPEETAVYYCAAARWSQYRTWMNYWGQGTQVTVSS,high polyreactivity

row,Sequence,polyreactivity (PSR sort gate)
1,QVQLVESGGGLVQAGGSLRLSCAASGRTFRGNAMGWYRQAPGKERELVAAINWGVGSTYYADSVKGRFTISRDNAKNTVYLQMNSLKPEDTAVYYCATRSYRGRDGFGYWGQGTQVTVSS,high polyreactivity
2,QVQLVESGGGLVQAGGSLRLSCAASGRTFRGNAMGWYRQAPGKERELVAAITSSGGGTYYADSVKGRFTISRDNAKNTVYLQMYSLKPEDTAVYYCAAEYRDGYRFSYDYWGQGTQVTVSS,low polyreactivity
3,QVQLVESGGGLVQAGGSLRLSCAASGRTFRGNDMGWYRQAPGKERELVAAISWSGGGTYYADSVKGRFTISRDNAKNTVYLQMNSLKPEDTAVYYCAADLPHFRYYYWGQGTQVTVSS,low polyreactivity
4,QVQLVESGGGLVQAGGSLRLSCAASGRTFRGYAMGWYRQAPGKERELVAAINFSAGITYYADSVKGRFTISRDNAKNTVYLQMNSLKPEDTAVYYCAAEPEWWWRGYGYWGQGTLVTVSS,low polyreactivity
5,QVQLVESGGGLVQAGGSLRLSCAASGRTFRHNDMGWYRQAPGKERELVAAISYSGGSTHYADSVKGRFTISRDNAKNTVYLQMNSLKPEDTAVYYCNRYSYDSHFLYPFRGHDYWGQGTQVTVSS,low polyreactivity
6,QVQLVESGGGLVQAGGSLRLSCAASGRTFRHNTMGWYRQAPGKEREFVAVITTSGGSTYYADSVKGRFTISRDNAKNTVYLQMNSMKPEDTAVYYCNAKYHLSRSTYYYWGQGTQVTVSS,high polyreactivity
7,QVQLVESGGGLVQAGGSLRLSCAASGRTFRHYAMGWYRQAPGKDRELVAAISGSGGRTYYADSVKGRFTISRDNAKNTVYLQMNSLKPEDTAVYYCATRHTTRFYWGQGTQVTVSS,high polyreactivity
8,QVQLVESGGGLVQAGGSLRLSCAASGRTFRHYAMGWYRQAPGKERELVAAISGSGGRTYYADSVKGRFTISRDNAKNTVYLQMNSLKPEDTAVYYCNAYTWTYGEYEYWGQGTQVTVSS,high polyreactivity
9,QVQLVESGGGLVQAGGSLRLSCAASGRTFRIYAMGWYRQAPGKERELVAAIRWSGGTTYYADSVKGRFTISRDNAKNTVYLQRNSLKPEDTAVYYCAADSTNRYDYWGQGTQVTVSS,high polyreactivity
10,QVQLVESGGGLVQAGGSLRLSCAASGRTFRKYAMGWYRQAPGKEMELVAGITSIGGRTYYADSVKGRFTISRDNAKNTVYLQMNSLKPEDTAVYYCAADSIGRKNWSLHSNYWGQGTQVTVSS,low polyreactivity
11,QVQLVESGGGLVQAGGSLRLSCAASGRTFRKYAMGWYRQAPGKERELVAGITSIGGRTYYADSVKGRFTISRDNAKNTVYLQMNSLKPEDTAVYYCAAEPYGGGVKHSAYDYCGQGTQVTVSS,low polyreactivity
12,QVQLVESGGGLVQAGGSLRLSCAASGRTFRKYTMGWYRQAPGKERELVAAITLSGGSTYYADSVKGRFTISRDNAKNTVYLQMNSLKPEDTAVYYCAARYNRGAFDYWGQGTQVTVSS,high polyreactivity
13,QVQLVESGGGLVQAGGSLRLSCAASGRTFRLFAMGWYRQAPGKERELVAAIRSGGNTNYADSVKGRFTISRDNAKNTVYLQMNSLKPEDTAVYYCAATTYVVASRYVGSLGDDYWGHGTQVTVSS,high polyreactivity
14,QVQLVESGGGLVQAGGSLRLSCAASGRTFRLYAMGWHRQAPGKERELVAAITRGGRTNYADSVKGRFTISRDNAKNTVYLQMNSLKPEDTAVYYCAARYVERHTDYYYWGQGTQVTVSS,low polyreactivity
15,QVQLVESGGGLVQAGGSLRLSCAASGRTFRLYAMGWYRQAHGKERELVARISRGGSTYYADSVKGRFTISRDNAKNTVYLQMNSLKPEDTAVYYCAAVAYALGFASKEDYWGQGTQVTVSS,high polyreactivity
16,QVQLVESGGGLVQAGGSLRLSCAASGRTFRLYAMGWYRQAPGKERALVAAITGVGSTNYADSVKGRFTISRDNAKNTVYLQMNSLKPEDTAVYYCAAYYWSQVLIQGYYSWGQGTQVTVSS,high polyreactivity
17,QVQLVESGGGLVQAGGSLRLSCAASGRTFRLYAMGWYRQAPGKERELVAAITRGGRTNYADSVKGRFTISRDNAKNTVYLQMNSLKPEDPAVYYCAARYVERHTDYYYWGQGTQVTVSS,low polyreactivity
18,QVQLVESGGGLVQAGGSLRLSCAASGRTFRNNAMGWYRQAPGKERELVASISKSGGRTYYADSVKGRFTISRDNAKNTVYLQMNSLKPEDTAVYYCAAYRIHVYPAGLSWQYYYELDYWGQGTQVTVSS,high polyreactivity
19,QVQLVESGGGLVQAGGSLRLSCAASGRTFRNYAMGWYRQAPGKERELVAGITYSGGSTFYADSVKGRFTISRDNAKNTVYLQMNSLKPEDTAVYYCAAVYVQYYWLGRSRGLDYWGQGTQVTVSS,high polyreactivity
20,QVQLVESGGGLVQAGGSLRLSCAASGRTFRPNAMGWYRQAPGKERELVASITRRGGTTYYADSVKGRFTNSRDNAKNTVYLQMNSLKPEDTAFYYCIGPRGYSSTRNGYWGQGTQVTVSS,high polyreactivity
